Laboratory results published in doi:10.1101/720938 (bioRxiv, 2019).

Molecular target: the molecule itself
Experiment: cryo-EM structure

Row | Protein | binding result
1 | PilA5 (TT_C1836), pilin of Thermus thermophilus HB27 (subunit of the narrow type IV pilus) (natural protein, T. thermophilus HB27, UniProt Q72GL2 6-116, looked up, extra density at Ser73, suggested to be O-linked glycosylation; disulphide bond Cys60-Cys88) FTLIELAIVIVIIGILVAIAVPRFVDLTDQANQANVDATAAAVRSAYAIATVQAKGIPTCDQVFANPEGGSTSGSTWTSSDNSTTVSCNASADTFTISRGGKTRTLNLTVN | binds
2 | PilA4, major pilin of Thermus thermophilus HB27 (subunit of the wide type IV pilus) (natural protein, T. thermophilus HB27, UniProt Q72JC0 7-131, looked up, extra densities at Ser59, Ser66 and Ser71, suggested to be O-linked glycosylation; disulphide bond Cys89-Cys124) FTLIELLIVIAIIAILAAVLIPNLLAARKRANDTVVTAYLNDAVKFQEMYQIDNNSYTSNQAALISLGLKSTPANVTFSIVSASANSYCMIAGHSGGTVWFAATPDKGVYKTNTAVTSSQPESCP | binds
